“Also recorded” adds a separate entry of the source.

In one assay the test system is myofibroblasts. Nature of the assay: myofibroblast apoptosis. In kind it is cell-based. The conditions noted are these: for myofibroblast apoptosis: N=6. An excerpt: N=6. *, P<0.05; **, P<0.05.
(§1) Taken together, FMOD not only promotes TGF-β1-induced myofibroblast differentiation and contractility, but also accelerates myofibroblast clearance—resulting in lack of myofibroblast persistence in remodeling stage of FMOD-treated wounds.

The test system of a further assay is myofibroblast. Nature of the assay: immunofluorescent (IF) staining for α-SMA stress fibers, myofibroblast differentiation in vitro. It counts as cell-based. The conditions noted are these: FMOD combined with TGF-β1. The source says: Formation of stress fibers stained strongly for α-SMA are indicated by yellow arrows. Scale bar=100 μm.
(§2) Activity level of myofibroblast is related to the activity of fibromodulin. Fibromodulin can promote myofibroblast differentiation and apoptosis.

Assay [1] concerns adult rat wounds. Nature of the assay: PCR array assay of gene expression in adult rat wounds. In kind it is in vivo. The note with it: for expression of α-SMA in wounds: FMOD-treated adult rat wounds. The source says:
Gene expression is normalized to unwounded skin (dashed lines). N=9 wounds from 9 animals. **, P<0.05.
Gene expression is normalized to unwounded skin (dashed lines). N=9 wounds from 9 animals. **, P<0.05

The test system of assay [2] is rat dermal fibroblast (RDF). The assay can be described thus: western blotting and qRT-PCR of α-SMA expression in rat dermal fibroblasts. It counts as cell-based.
Source text: Data are normalized to untreated RDFs at time 0 (dash lines). N=3. *, P<0.05.
as §2
(A western blot detects proteins with antibodies after separation by electrophoresis.)

In the next assay the test system is RDF. Nature of the assay: in vitro collagen gel contraction. It counts as cell-based, rat. The note with it: FMOD alone; N=6.
Source text: as §2

A further assay has as its system adult rat skin wounds. The assay can be described thus: scar formation and tensile strength of adult rat skin wounds. It counts as in vivo.
Source text: as §1

Assay [3] deals with adult rat wounds. Nature of the assay: α-SMA-positive myofibroblasts in wounds. It counts as in vivo. The conditions noted are these: FMOD-treated wounds; day 14 post injury.
Source text: as §1

For “TGF-β1: transforming growth factor (TGF)-β1, myofibroblast differentiation inducing agent”, the “interleukin (IL)-1β-mediated apoptosis in myofibroblasts” value in the assay on myofibroblasts (effect of TGF-β1) is given as “completely blocked”.

B1: FMOD: fibromodulin protein; an example is SEQ ID NO:1 (Genebank NM 002023) (protein, listed as Homo sapiens)
chain: WTSLLLLAGLFSLSQAQYEDDPHWWFHYLRSQQSTYYDPYDPYPYETYEPYPYGVDEGPAYTYGSPSPPDPRDCPQECDCPPNFPTAMYCDNRNLKYLPFVPSRMKYVYFQNNQITSIQEGVFDNATGLLWIALHGNQITSDKVGRKVFSKLRHLERLYLDHNNLTRMPGPLPRSLRELHLDHNQISRVPNNALEGLENLTALYLQHNEIQEVGSSMRGLRSLILLDLSYNHLRKVPDGLPSALEQLYMEHNNVYTVPDSYFRGAPKLLYVRLSHNSLTNNGLASNTFNSSSLLELDLSYNQLQKIPPVNTNLENLYLQGNRINEFSISSFCTVVDVVNFSKLQVLRLDGNEIKRSAMPADAPLCLRLASLIEI
With B1, the “myofibroblast differentiation and contractility in vitro” value with myofibroblast was “significantly enhanced”. The “expression of α-SMA in wounds” value in the assay on adult rat wounds [1] (early 3-day time-point) is “significantly upregulated”; with adult rat wounds [1] (late 7- and 14-day time-points) it was “reduced”. The IL-1β expression entry in the assay on adult rat wounds [1] (day 3 and 7 adult rat wounds) is “significantly stimulated”. For the same molecule, the IL-10 expression entry in the assay with adult rat wounds [1] (day 3 and 7 adult rat wounds, PCR array) is “significantly stimulated”. The myofibroblast apoptosis result in the assay with myofibroblasts (FMOD alone) is recorded as “promoted myofibroblast apoptosis as effectively as IL-1β; also recorded: induces myofibroblast apoptosis as effectively as IL-10”; in the assay with myofibroblasts (in the presence of TGF-β1), “promoted apoptosis even in the presence of TGF-1β”. Besides, the “α-smooth muscle actin (α-SMA) expression” value in assay [2] (FMOD alone, western blotting and qRT-PCR, N=3) is “no significant effect”. Further, the “TGF-β1-induced α-SMA expression” value in assay [2] (FMOD in the presence of TGF-β1, N=3) was “significantly enhances”; in assay [2] (FMOD in the presence of TGF-β1, N=3, listed as Fibromodulin) it was “significantly promoted”. Besides, the “RDF contraction in collagen gel” value in the assay with RDF was “minimal effects”. Besides, the collagen architecture result in the assay with adult rat skin wounds (adult rat primary closure wounds) is listed as “more organized collagen architecture”. Besides, the scar size entry with adult rat skin wounds (adult rat skin wounds, doses □ 0.4 mg/ml, day 14 post injury, compared to control) is reported as “significant smaller scar; also recorded: significantly reduces”. The tensile strength result in the assay with adult rat skin wounds (adult rat wounds) was “stronger tensile strength; also recorded: increasing tensile strength in a dose dependent manner”. Moreover, in the assay on adult rat wounds [3], the α-SMA-positive myofibroblasts result is on record as “diminished; also recorded: decreased”.

These data come from patent publication US12144843B2, “Methods and compositions for modulating myofibroblast activities” (THE REGENTS OF THE UNIVERSITY OF CALIFORNIA, priority 2011, dated 2024).
